Experimental findings from patent US9395368B2, “Methods, agents and peptides for inducing an immune response to matrix metalloproteinase-2 expressing tumors” (New York University, priority 2010, dated 2016) are described below.

This assay relates to CD4+ T cells from healthy donors. Kind of assay: CD4+ T cells stimulated with autologous DCs loaded with whole MMP-2 protein, response to peptide pool. It is filed as cell-based, human. The following applies: DCs incubated with MMP-2 protein (10 μM), 12 days. As to the method: (A) MMP-2-specific CD4^+ T cell clones were generated and characterized as described in Experimental Procedures. Clone HD9828/52 is shown as a representative example. Epitope specificities were assessed after overnight stimulation with individual peptides (2 μM). IFNγ, TNFα and IL-4 release was measured by ELISA. (B) All MMP-2-specific CD4^+ T cell clones were characterized by staining for CD4, CD8 and TCR Vβ chain expression. Clone HD9828/52 is shown as a representative example. (C) To establish HLA class-II isotype restriction, CD4^+ T cell clones were stimulated by corresponding peptides in the absence or presence of blocking mAb (10 μg/mL) for HLA-DP, HLA-DQ or HLA-DR and IFNγ release was measured by ELISA. (D) Purified CD4^+/CD25^− cells were stimulated for 12 days by autologous DCs incubated with MMP-2 protein (10 μM) and subsequently washed. MMP-2-specific CD4^+ T cells were detected by intracellular staining of IFNγ, TNFα and IL-4 after 6 hours of stimulation with MMP-2 peptide pool (2 μM). Numbers in the upper right quadrants are the percentages of each population.
T Cell culture, stimulation and priming. Peripheral blood mononuclear cells (PBMCs) were purified from healthy donor-(HD) or cord blood donor-(CB) derived buffy coats (New York Blood Center) by Ficoll-Paque Plus (GE Healthcare) centrifugation. CD4^+/CD25^− cells were enriched (>90%) by magnetic cell sorting (Miltenyi Biotec) and primed/stimulated for 12-15 days either with irradiated (35Gy) autologous CD4^− cells or with autologous mature DCs in IMDM (GIBCO) supplemented with 1 mM HEPES (Life Technologies), 2 mM L-glutamine (Sigma), […] (Sigma) and 5% heat inactivated pooled human serum (PHS; Valley Biomedical) in the presence of rhIL-2 (10 UI/mL) and IL7 (5 ng/mL) (R&D Systems). Antigen presenting cells (CD4^− cells or DCs) were loaded either with peptides (2 μM) or with the MMP-2 protein (10 μg/mL) for 2 and 5 h, respectively. DCs were matured using the TLR3 agonist poly(I:C) at 5 μg/mL/10^6 DCs (Amersham). To generate T cell clones, we originally relied on our published methodology (Godefroy et al., 2006; Godefroy et al., 2007; the entire contents of each of which is incorporated herein by reference), involving enrichment of IFNγ-secreting cells upon short-term culture and peptide stimulation to generate MMP-2 responsive clones. Briefly, CD4^+ T cells were stimulated by CD4^− cells irradiated and pulsed with peptides for 12 days in the presence of rhIL-2 and rhIL-7. CD4^+ T cells were then restimulated with peptides for 3 hours before capturing IFNγ-secreting specific cells using a bispecific antibody coating T cells and capturing produced IFNγ. […]
Intracellular staining T-bet and GATA-3 expression was measured on resting T cells. […]

B1: active MMP-2: Purified human MMP-2 (mixture of the proenzyme (50%) and the active form (50%)) purchased from Biomol (protein, listed as Homo sapiens)
chain: MEALMARGALTGPLRALCLLGCLLSHAAAAPSPIIKFPGDVAPKTDKELAVQYLNTFYGCPKESCNLFVLKDTLKKMQKFFGLPQTGDLDQNTIETMRKPRCGNPDVANYNFFPRKPKWDKNQITYRIIGYTPDLDPETVDDAFARAFQVWSDVTPLRFSRIHDGEADIMINFGRWEHGDGYPFDGKDGLLAHAFAPGTGVGGDSHFDDDELWTLGEGQVVRVKYGNADGEYCKFPFLFNGKEYNSCTDTGRSDGFLWCSTTYNFEKDGKYGFCPHEALFTMGGNAEGQPCKFPFRFQGTSYDSCTTEGRTDGYRWCGTTEDYDRDKKYGFCPETAMSTVGGNSEGAPCVFPFTFLGNKYESCTSAGRSDGKMWCATTANYDDDRKWGFCPDQGYSLFLVAAHEFGHAMGLEHSQDPGALMAPIYTYTKNFRLSQDDIKGIQELYGASPDIDLGTGPTPTLGPVTPEICKQDIVFDGIAQIRGEIFFFKDRFIWRTVTPRDKPMGPLLVATFWPELPEKIDAVYEAPQEEKAVFFAGNEYWIYSASTLERGYPKPLTSLGLPPDVQRVDAAFNWSKNKKTYIFAGDKFWRYNEVKKKMDPGFPKLIADAWNAIPDNLDAVVDLQGGGHSYFFKGAYYLKLENQSLKSVKFGSIKSDWLGC
Turning to B1, where the note is “donor HD6026”, the “cells secreting IFNγ” value is listed as 0.12% and the “cells secreting IL-4” value is given as 0.73%. Where the note is “donor HD6028”, the “cells secreting IFNγ” value came out at 0.17% and the “cells secreting IL-4” value was found to be 1.99%.
